Publication PMC6221947 (Structure (London, England : 1993), 2018)

T1: Trypanosoma brucei deoxyhypusine synthase, catalytic paralog (TbDHSc), His-SUMO tag removed (T. brucei, UniProt Q38BX0 1-461)
T1 sequence: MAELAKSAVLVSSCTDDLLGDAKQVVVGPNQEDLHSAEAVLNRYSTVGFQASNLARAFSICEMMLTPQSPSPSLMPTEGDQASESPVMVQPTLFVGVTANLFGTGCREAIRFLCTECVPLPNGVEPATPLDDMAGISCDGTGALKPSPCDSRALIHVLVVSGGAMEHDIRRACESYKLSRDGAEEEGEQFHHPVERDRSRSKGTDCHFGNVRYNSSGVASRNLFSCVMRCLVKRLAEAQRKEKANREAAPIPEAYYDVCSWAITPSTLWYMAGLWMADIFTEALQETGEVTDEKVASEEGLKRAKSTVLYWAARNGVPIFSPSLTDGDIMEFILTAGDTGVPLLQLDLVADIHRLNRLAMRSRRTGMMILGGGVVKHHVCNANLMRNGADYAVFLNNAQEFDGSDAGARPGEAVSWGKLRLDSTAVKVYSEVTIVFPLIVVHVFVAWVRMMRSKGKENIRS


How the values were obtained:
[1] = substrate: NC(=O)c1ccc[n+]([C@@H]2O[C@H](COP(=O)(O)OP(=O)(O)OC[C@H]3O[C@@H](n4cnc5c(N)ncnc54)[C@H](O)[C@@H]3O)[C@@H](O)[C@H]2O)c1; test: purified protein; format: biochemical, Trypanosoma brucei; details: 78 μM [14C]spermidine, 15 μM TbeIF5A, 5 nM DHS; varied: cofactor
[2] = substrate: NCCCCNCCCN; test: purified protein; format: biochemical, Trypanosoma brucei; details: 1 mM NAD+, 15 μM TbeIF5A, 5 nM DHS; labelled compound
[3] = biological target: T1, Trypanosoma brucei deoxyhypusine …; test: crystal structure

| Binder | Km [1] | kcat [1] | Km [2] | kcat [2] | binding result [3] |
| --- | --- | --- | --- | --- | --- |
| TbDHSc:DHSp (Trypanosoma brucei brucei TREU927) (protein) chain 1: MAELAKSAVLVSSCTDDLLGDAKQVVVGPNQEDLHSAEAVLNRYSTVGFQASNLARAFSICEMMLTPQSPSPSLMPTEGDQASESPVMVQPTLFVGVTANLFGTGCREAIRFLCTECVPLPNGVEPATPLDDMAGISCDGTGALKPSPCDSRALIHVLVVSGGAMEHDIRRACESYKLSRDGAEEEGEQFHHPVERDRSRSKGTDCHFGNVRYNSSGVASRNLFSCVMRCLVKRLAEAQRKEKANREAAPIPEAYYDVCSWAITPSTLWYMAGLWMADIFTEALQETGEVTDEKVASEEGLKRAKSTVLYWAARNGVPIFSPSLTDGDIMEFILTAGDTGVPLLQLDLVADIHRLNRLAMRSRRTGMMILGGGVVKHHVCNANLMRNGADYAVFLNNAQEFDGSDAGARPGEAVSWGKLRLDSTAVKVYSEVTIVFPLIVVHVFVAWVRMMRSKGKENIRS chain 2: MSGVPFPSRVIGDLDYSNLLNIGQEEAIRCVLNAYPNIGLEATNLGRARRIVQRALNDNGMDGNKVMLAYTSNLISSGLRDTFACLARENRIGAVVTTAGGVEEDVIKCLGDTLVGDFALNDHALRNNGLNRVGNLLVPNDNYRNFEDFFVPLLRRLHEQQRDSRWTTKTTPSQIIAEIGAALESVRPNDCGSSLIYWCYRNDIPVFSPAFTDGSMGDMIYFYNYSRKGLVVDPVPDVRRLRQLGCKSTNVGRITCIVLGAGLPKHHLLRNVQADAVVYVTTGSDADGCESSCNVMADRANGLLSPNCDVVRVHGDATIISPLLLLRSSDGKEKVGVREDGN | 1.3 ± 0.18 µM | 0.15 ± 0.0045 s⁻¹ | 9.8 ± 1.2 µM | 0.18 ± 0.01 s⁻¹ |  |
| Trypanosoma brucei deoxyhypusine synthase prozyme paralog (TbDHSp), untagged (natural protein, T. brucei, UniProt Q4GZD1 1-342, looked up) MSGVPFPSRVIGDLDYSNLLNIGQEEAIRCVLNAYPNIGLEATNLGRARRIVQRALNDNGMDGNKVMLAYTSNLISSGLRDTFACLARENRIGAVVTTAGGVEEDVIKCLGDTLVGDFALNDHALRNNGLNRVGNLLVPNDNYRNFEDFFVPLLRRLHEQQRDSRWTTKTTPSQIIAEIGAALESVRPNDCGSSLIYWCYRNDIPVFSPAFTDGSMGDMIYFYNYSRKGLVVDPVPDVRRLRQLGCKSTNVGRITCIVLGAGLPKHHLLRNVQADAVVYVTTGSDADGCESSCNVMADRANGLLSPNCDVVRVHGDATIISPLLLLRSSDGKEKVGVREDGN |  |  |  |  | binds |
